Experimental data from a protein production outcome set (Wang et al. 2014).

Test: label from the status in PepcDB records

Sequence	protein production
MIRCLHVLYVRHVMLMSTIHHTKRTLQPYFALVRAPFLVFTAIVILLPAAAAAEAGILNVTNTLLAFGSVLAAHVAVNILNLASDYRTGIDEATDETPYSGGNDVLVSGTLSYRRALAAGVIAILASALFVVPLVSQFGGIVLLFYGVGTVLVVGYTDVFARIGLGEFACGAGLTFLPTVAVGYIQAGTFPESVLYLSVPMFLVGFNLLLLNEFPDVEADRTNGRVNIPVVLGRQTAGYIYFGLVGVLVASLLYPIATGALPATVAVAILPIALLAPIFRTVVLEGNGDLTDDELGNHILWTQTTIVALAVGMAAAAVL	failed
METLLHAKLLLSAEVESLKSGSFDQTYVKKAEHIISGESYQLVQQFVDKFKGKISISGEISTSSVIAALNDFLNVEVFKMGQENEMLFLAIALLQTFIQNNYTGPAARLKAISGLFGKTGIEIGAVNTALSRSLAIMGQPAYEFMDDPLYLVLSLLLLERITGQKSLFDVTPDQEIPLPIISAESTPGLLAVAYWWWARALLTQLSLIPEPSGFQASVASAIYQSADLAYAITKELPESIHEDFKRELCAMYYLENVKCSLAINTEHLCLPSLTRAKKITNFEFVMTGARATRTKYQQKAHAGLIILAKSFTFQNFALRTTSATPETFALESDLLLEKPHFESIADEPLDEQIYSKRQKVDLNEGYEEDKLLPLALRQENIPKLLLDLNPNDQPTLSDYDNIQLLLRLYTIKNTTPAKDPLVEEELTALLSRILYQNGDKNWSIFARSLWERSIIETTKAKTIERGLLQMQSLVEELDLKIKSKLVPSSSEINVASRLSYIHQLPFIPRWQLDATLAEKYMSLGILKSAVEIYERLGMACETALCYAAVGDEKKAEEILLQRINENDSDARAYSILGDIKQDPSLWEKSWEIGKYVNAKNSLAKYYFNPPPKSGAQPNYSATLKHLNDSLRQYPLSFETWYFYGCVGLQCGKMQIAAEAFTRCVSLDPYHALSWSNLSAAYTKMDKLKEAYSCLKRAISCDAQKNWKIWENYMLVAVKLNEWEDVLTACKQLVSIRRDKSGEGSIDLPIIEKLVELLVTSEYPEEPQQLSYFQKSCTEFICNTLPQVITTSARCWRLVARVELWRKRPWAALECHEKAYRAISHNPDLEVEEKVWNDTVDACEDLVAAYESLGEMEGKYGPGSLVCKDWKYKCRSTIKALMSKGKGRWDDSPGWDRLVEARSQI	failed
MIFVIFAKKSVRFPGKHSAMINGRRMIDIVASKLKNHGEVILYSKDPELNCDMCRVVRDTTDGIITDSVLSAMDRFGTFFAVAGDMPFITDRIIEKILSSYDGKPTFPVHADGLIEPLFGIYTDAIYDAMRDYIESGGESLIGFLSMADIDRVPIAEEEEKFFVSVNYPEDIKKYADLLTLEHHHHHH	failed
MQTQIKVRGYHLDVYQHVNNARYLEFLEEARWDGLENSDSFQWMTAHNIAFVVVNININYRRPAVLSDLLTITSQLQQLNGKSGILSQVITLEPEGQVVADALITFVCIDLKTQKALALEGELREKLEQMVK	not failed
MADSIKSSNSFQKLDNIDAKETSTVDRKWVALTAYQPVDVVTKTVEVPIIKTVEKYVPKTIIQEKIIHVPKNVTHIVEKIVEVPEVKYIEKIVEVPHIHYKNKYVPKIEIVEKVVERQKIIEKWHDKIVEVPQIKEVVRFKQIEDSEEIIKYVPRNSKNIDWEDEYKKYTESKGLQRYSLDQNNIYQQANSFNQFNENAYNQNAFNRSYELLNKQSSVKSQNNASGENFSQMNFYNQYSGANFEQERSIQASNFEPSGSMQLKRLSSEEIKPAGCCSAACT	failed
